In US5916561:

Tests used:
[1] = target: soluble CD44 variants containing exon v6 in normal human serum (human) (UniProt P16070); assay: sandwich ELISA, coating antibody, serum 1 diluted 1:5, detection BU-52-peroxidase
[2] = target: soluble CD44 variants containing exon v6 in normal human serum (human) (UniProt P16070); assay: sandwich ELISA, coating antibody, serum 1 diluted 1:160, detection BU-52-peroxidase
[3] = target: soluble CD44 variants containing exon v6 in normal human serum (human) (UniProt P16070); assay: sandwich ELISA, coating antibody, serum 2 diluted 1:80, detection BU-52-peroxidase
[4] = target: soluble CD44 variants containing exon v6 in normal human serum (human) (UniProt P16070); assay: sandwich ELISA, coating antibody, serum 2 diluted 1:160, detection BU-52-peroxidase
[5] = target: soluble CD44 variants containing exon v6 in normal human serum (human) (UniProt P16070); assay: sandwich ELISA, coating antibody, serum 2 diluted 1:10, detection BU-52-peroxidase
[6] = target: soluble CD44 variants containing exon v6 in normal human serum (human) (UniProt P16070); assay: sandwich ELISA, coating antibody, serum 1 diluted 1:80, detection BU-52-peroxidase
[7] = target: soluble CD44 variants containing exon v6 in normal human serum (human) (UniProt P16070); assay: sandwich ELISA, coating antibody, serum 1 diluted 1:10, detection BU-52-peroxidase
[8] = target: soluble CD44 variants containing exon v6 in normal human serum (human) (UniProt P16070); assay: sandwich ELISA, coating antibody, serum 2 diluted 1:5, detection BU-52-peroxidase
[9] = target: soluble CD44 variants containing exon v6 in normal human serum (human) (UniProt P16070); assay: sandwich ELISA, coating antibody, serum 1 diluted 1:320, detection BU-52-peroxidase
[10] = target: soluble CD44 variants containing exon v6 in normal human serum (human) (UniProt P16070); assay: sandwich ELISA, coating antibody, serum 2 diluted 1:20, detection BU-52-peroxidase
[11] = target: soluble CD44 variants containing exon v6 in normal human serum (human) (UniProt P16070); assay: sandwich ELISA, coating antibody, serum 1 diluted 1:640, detection BU-52-peroxidase
[12] = target: soluble CD44 variants containing exon v6 in normal human serum (human) (UniProt P16070); assay: sandwich ELISA, coating antibody, serum 1 diluted 1:40, detection BU-52-peroxidase
[13] = target: soluble CD44 variants containing exon v6 in normal human serum (human) (UniProt P16070); assay: sandwich ELISA, coating antibody, serum 2 diluted 1:320, detection BU-52-peroxidase
[14] = target: soluble CD44 variants containing exon v6 in normal human serum (human) (UniProt P16070); assay: sandwich ELISA, coating antibody, serum 1 diluted 1:20, detection BU-52-peroxidase
[15] = target: soluble CD44 variants containing exon v6 in normal human serum (human) (UniProt P16070); assay: sandwich ELISA, coating antibody, serum 2 diluted 1:640, detection BU-52-peroxidase
[16] = target: soluble CD44 variants containing exon v6 in normal human serum (human) (UniProt P16070); assay: sandwich ELISA, coating antibody, serum 2 diluted 1:40, detection BU-52-peroxidase
[17] = target: CD44 (variant isoforms not specified) on HT-29 cells (human) (UniProt P16070); assay: 3H-labelled antibody on ethanol-fixed HT-29 cells
[18] = target: human variant CD44 (exons v3-v10) on the cell surface of CHO-CD44var cells (human) (UniProt P16070); assay: 3H-labelled antibody on ethanol-fixed CHO CD44var cells
[19] = target: CD44 (variant isoforms not specified) on CaCo cells (human) (UniProt P16070); assay: 3H-labelled antibody on ethanol-fixed CaCo cells
[20] = target: CD44 (variant isoforms not specified) on HCT-116 cells (human) (UniProt P16070); assay: 3H-labelled antibody on ethanol-fixed HCT-116 cells
[21] = target: CD44 (variant isoforms not specified) on A431 cells (human) (UniProt P16070); assay: 3H-labelled antibody on ethanol-fixed A431 cells
[22] = target: CD44 (variant isoforms not specified) on COLO 205 cells (human) (UniProt P16070); assay: 3H-labelled antibody on ethanol-fixed COLO 205 cells
[23] = target: CD44 (variant isoforms not specified) on CX-1 cells (human) (UniProt P16070); assay: 3H-labelled antibody on ethanol-fixed CX-1 cells
[24] = target: soluble CD44 variants containing exon v6 in normal human serum (human) (UniProt P16070); assay: sandwich ELISA, serum of donor 1, calibrated on recombinant soluble CD44v3-v10; reference VFF-7
[25] = target: soluble CD44 variants containing exon v6 in normal human serum (human) (UniProt P16070); assay: sandwich ELISA, serum of donor 6, calibrated on recombinant soluble CD44v3-v10; reference VFF-7
[26] = target: soluble CD44 variants containing exon v6 in normal human serum (human) (UniProt P16070); assay: sandwich ELISA, serum of donor 2, calibrated on recombinant soluble CD44v3-v10; reference VFF-7
[27] = target: soluble CD44 variants containing exon v6 in normal human serum (human) (UniProt P16070); assay: sandwich ELISA, serum of donor 3, calibrated on recombinant soluble CD44v3-v10; reference VFF-7
[28] = target: soluble CD44 variants containing exon v6 in normal human serum (human) (UniProt P16070); assay: sandwich ELISA, sera of 6 healthy donors, calibrated on recombinant soluble CD44v3-v10; reference VFF-7
[29] = target: soluble CD44 variants containing exon v6 in normal human serum (human) (UniProt P16070); assay: sandwich ELISA, serum of donor 4, calibrated on recombinant soluble CD44v3-v10; reference VFF-7
[30] = target: soluble CD44 variants containing exon v6 in normal human serum (human) (UniProt P16070); assay: sandwich ELISA, serum of donor 5, calibrated on recombinant soluble CD44v3-v10; reference VFF-7

Row | Substance | absorption (sandwich ELISA signal) (absorption at 450 nm) [1] | absorption (sandwich ELISA signal) (absorption at 450 nm) [2] | absorption (sandwich ELISA signal) (absorption at 450 nm) [3] | absorption (sandwich ELISA signal) (absorption at 450 nm) [4] | absorption (sandwich ELISA signal) (absorption at 450 nm) [5] | absorption (sandwich ELISA signal) (absorption at 450 nm) [6] | absorption (sandwich ELISA signal) (absorption at 450 nm) [7] | absorption (sandwich ELISA signal) (absorption at 450 nm) [8] | absorption (sandwich ELISA signal) (absorption at 450 nm) [9] | absorption (sandwich ELISA signal) (absorption at 450 nm) [10] | absorption (sandwich ELISA signal) (absorption at 450 nm) [11] | absorption (sandwich ELISA signal) (absorption at 450 nm) [12] | absorption (sandwich ELISA signal) (absorption at 450 nm) [13] | absorption (sandwich ELISA signal) (absorption at 450 nm) [14] | absorption (sandwich ELISA signal) (absorption at 450 nm) [15] | absorption (sandwich ELISA signal) (absorption at 450 nm) [16] | specific binding (bound antibody per 400 000 cells) [17] [fmol] | specific binding (bound antibody per 400 000 cells) [18] [fmol] | specific binding (bound antibody per 400 000 cells) [19] [fmol] | specific binding (bound antibody per 400 000 cells) [20] [fmol] | other results
1 | antibody VFF-4 | 0.406 | 0.05 | 0.699 | 0.336 | 1.76 | 0.109 | 0.378 | 1.69 | 0.026 | 1.56 | 0.012 | 0.207 | 0.138 | 0.296 | 0.054 | 1.21 | – | – | – | – | –
2 | antibody VFF-7 | 0.417 | 0.03 | 0.208 | 0.061 | 1.19 | 0.062 | 0.289 | 1.28 | 0.008 | 0.857 | 0.007 | 0.072 | 0.014 | 0.179 | 0.018 | 0.468 | 0 | 33.5 | 0.03 | 1.44 | specific binding (bound antibody per 400 000 cells) [21]: 8.19 fmol; specific binding (bound antibody per 400 000 cells) [22]: 0 fmol; specific binding (bound antibody per 400 000 cells) [23]: 0.19 fmol
3 | antibody VFF-18 | 3.14 | 0.594 | 2.54 | 1.67 | 3.32 | 1.08 | 3.06 | 3.29 | 0.318 | 3.16 | 0.159 | 1.78 | 0.988 | 2.63 | 0.546 | 3.05 | 26.1 | 46.5 | 12.6 | 20.2 | VFF-18/VFF-7 (ratio of the serum levels read by the two ELISAs) [24]: 4.17; VFF-18/VFF-7 (ratio of the serum levels read by the two ELISAs) [25]: 3.48; specific binding (bound antibody per 400 000 cells) [21]: 38.7 fmol; VFF-18/VFF-7 (ratio of the serum levels read by the two ELISAs) [26]: 2.66; VFF-18/VFF-7 (ratio of the serum levels read by the two ELISAs) [27]: 3.91; VFF-18/VFF-7 (mean value of the ratio over 6 donors) [28]: 3.53; VFF-18/VFF-7 (ratio of the serum levels read by the two ELISAs) [29]: 3.31; specific binding (bound antibody per 400 000 cells) [22]: 2.88 fmol; VFF-18/VFF-7 (ratio of the serum levels read by the two ELISAs) [30]: 3.67; specific binding (bound antibody per 400 000 cells) [23]: 9.48 fmol
